We go through three molecules from patent US20080139472A1, “UPREGULATING BDNF LEVELS TO MITIGATE MENTAL RETARDATION” (THE REGENTS OF THE UNIVERSITY OF CALIFORNIA, priority 2006, published 2008).

“Also recorded” adds a separate entry of the source.

Format in all cases: cell-based, mouse
One assay has as its system NMDA receptor. As to the kind of experiment: NMDA receptor contribution to theta burst responses in hippocampal slices, estimated with APV. As for the experimental part:
(§1) Transverse hippocampal slices (350 m) through the mid-septotemporal hippocampus were prepared with a vibratome (VT 1000 S; Leica, Bannockbum, Ill.) in ice-cold artificial CSF [ACSF; containing (in mM) 124 NaCl, 3 KCl, 1.25 KH2PO4, 3.4 CaCl2, 2.5 MgSO4, 26 NaHCO3, and 10 dextrose, pH 7.35) from young (2-3 months old) adult Fmr1-KO and wild-type (WT) mice (unless otherwise specified, chemicals were from Sigma, St. Louis, Mo.). […] Related to this, pharmacological results obtained with such slices accurately predict effects obtained with chronic recordings or biochemical assays from behaving animals (Staubli et al., 1994; Lauterbom et al., 2003), a point that is of importance to those aspects of the present work concerned with therapeutic strategies. All experiments were initiated between 9:00 and 11:00 A.M., and slices from Fmr1-KO and WT animals were randomized across two chambers and run simultaneously. Slices were maintained at 31±1° C. in an interface recording chamber with the slice surface exposed to warm, humidified 95% O2/5% CO2 and continuous ACSF perfused at a rate of 60-70 ml/hr. Slices equilibrated to the chamber for at least 1 h before recordings were initiated. […] Evoked responses were digitized (NacGather 2.0; Theta Burst, Irvine, Calif.) and analyzed for amplitude and fall slope; data are presented as a percentage of baseline. Responses to individual theta bursts were analyzed to determine the burst area; to evaluate treatment effects on theta train facilitation, responses to each burst in the theta train are presented as a percentage change from the area of the initial burst response. […] Statistical significance was assessed using either two-way repeated-measures ANOVA to compare values that were stable over time or Mann-Whitney Utest to compare groups expressing different decay rates (i.e., values not stable over time); statistical analyses were performed using SPSS version 15.0 (SPSS, Chicago, Ill.) Variance for physiology experiments is expressed as SEM.

Assay [1] deals with hippocampal slices from Fmr1-KO mice. As to the kind of experiment: LTP (fEPSP slope) after theta burst stimulation in field CA1 of hippocampal slices from Fmr1-KO mice. The conditions noted are these: for effect on TBS-induced increase in fEPSP slope (30-40 min post-TBS): compared with ACSF alone. As for the experimental part:
Transverse hippocampal slices (350 m) through the mid-septotemporal hippocampus were prepared with a vibratome (VT 1000 S; Leica, Bannockbum, Ill.) in ice-cold artificial CSF [ACSF; containing (in mM) 124 NaCl, 3 KCl, 1.25 KH2PO4, 3.4 CaCl2, 2.5 MgSO4, 26 NaHCO3, and 10 dextrose, pH 7.35) from young (2-3 months old) adult Fmr1-KO and wild-type (WT) mice (unless otherwise specified, chemicals were from Sigma, St. Louis, Mo.). […] Related to this, pharmacological results obtained with such slices accurately predict effects obtained with chronic recordings or biochemical assays from behaving animals (Staubli et al., 1994; Lauterbom et al., 2003), a point that is of importance to those aspects of the present work concerned with therapeutic strategies. All experiments were initiated between 9:00 and 11:00 A.M., and slices from Fmr1-KO and WT animals were randomized across two chambers and run simultaneously. Slices were maintained at 31±1° C. in an interface recording chamber with the slice surface exposed to warm, humidified 95% O2/5% CO2 and continuous ACSF perfused at a rate of 60-70 ml/hr. Slices equilibrated to the chamber for at least 1 h before recordings were initiated. A single glass electrode (2 M NaCl) was placed within the mid proximodistal CA1b stratum radiatum and was used to record field EPSPs (fEPSPs) from the apical dendrites of CA1 pyramidal cells. Orthodromic stimulation was delivered at two sites (CA1a and CA1c) in the apical Schaffer collateral-commissural projections to provide convergent activation of CA1b pyramidal cells. Pulses were administered in an alternating manner to the two electrodes at 0.05 Hz by using a current that elicited a 50% maximal response. […] Input-output and paired-pulse facilitation assays were performed as described previously (Rex et al., 2005). Synaptic potentiation was induced with a train of 5 or 10 theta bursts (each containing four pulses at 100 Hz, with an interburst interval of 200 ms) Carson et al., 1986; Kramar and Lynch, 2003; Rex et al., 2005). Evoked responses were digitized (NacGather 2.0; Theta Burst, Irvine, Calif.) and analyzed for amplitude and fall slope; data are presented as a percentage of baseline. Responses to individual theta bursts were analyzed to determine the burst area; to evaluate treatment effects on theta train facilitation, responses to each burst in the theta train are presented as a percentage change from the area of the initial burst response. Unless otherwise stated, group size values presented in the figures represent number of slices tested. Generally two to three slices were tested from a given mouse, and no fewer than three mice were used in any group; for statistical analyses, each slice was considered an individual n. Statistical significance was assessed using either two-way repeated-measures ANOVA to compare values that were stable over time or Mann-Whitney Utest to compare groups expressing different decay rates (i.e., values not stable over time); statistical analyses were performed using SPSS version 15.0 (SPSS, Chicago, Ill.) Variance for physiology experiments is expressed as SEM.
A recirculating perfusion system (oxygenated and heated as above) with a peristaltic pump (60 ml/hr; MasterFlex C/L; Cole-Parmer, Vernon Hills, Ill.) was used for experiments in which purified BDNF (catalog #GF029; Millipore, Temecula, Calif.) was administered to slices. The purity of the recombinant (mature) BDNF was confirmed using Western blot analyses: a single 14 kDa band was observed under denaturing conditions. Slices received BDNF for 30 min to 1 h before physiological recording. BDNF stock was prepared in ddH2O at a concentration of 50 ng/ml (this is equivalent to 1.85 nM based on the 27 kDa size of the dimer) and stored at −20° C. Control slices from the same animals received ACSF alone in parallel on a second recirculating interface chamber. […]

In assay [2] the test system is hippocampal slices from WT mice. Description: LTP (fEPSP slope) after theta burst stimulation in field CA1 of hippocampal slices from wild-type mice. As for the experimental part: as §1, with “SEM. […]” for “SEM.”
Where [3] appears, read: WT slices, pair of theta bursts, mean of 6 slices.
Where [4] appears, read: Fmr1-KO slices, five theta bursts.

Consider `N[C@@H](CCCP(=O)(O)O)C(=O)O` [APV], for which the “effect of APV on theta burst responses” value in the assay with NMDA receptor (Fmr1-KO slices, pair of theta bursts with and without APV) was “marked, and reversible, depression”. Besides, in the assay on NMDA receptor (setting [3]), the “effect of APV on the first burst response” value is given as “slight reduction in the half-width of the fourth fEPSP” and the “effect of APV on the second burst response” value is “reduced the size of fEPSPs 2 through 4”.

B1: BDNF: purified recombinant (mature) BDNF, catalog #GF029; Millipore; single 14 kDa band under denaturing conditions (protein, UniProt P23560 19-247, looked up)
Neurotrophic factor BDNF …: APMKEANIRGQGGLAYPGVRTHGTLESVNGPKAGSRGLTSLADTFEHVIEELLDEDQKVRPNEENNKDADLYTSRVMLSSQVPLEPPLLFLLEEYKNYLDAANMSMRVRRHSDPARRGELSVCDSISEWVTAADKKTAVDMSGGTVTVLEKVPVSKGQLKQYFYETKCNPMGYTKEGCRGIDKRHWNSQCRTTQSYVRALTMDSKKRIGWRFIRIDTSCVCTLTIKRGR
On to B1, for which the LTP above baseline in assay [1] (Fmr1-KO slices treated with BDNF 15 ng/ml) is reported as more than 40%. In assay [1] (Fmr1-KO slices, BDNF 2 nM from 30 min before theta burst stimulation, five theta bursts, 40-50 min post-TBS), the “slope of the fEPSP enhanced above baseline” value is listed as 44%. Besides, in assay [1] (Fmr1-KO slices, BDNF 50 ng/ml bath-applied, five theta bursts, minutes 30-40 post-TBS, mean ±SEM), the “degree of LTP (fEPSP slope, percent above baseline)” value is on record as 42.1±8.6%. In addition, in assay [1] (Fmr1-KO slices, BDNF 50 ng/ml vs ACSF alone or heat-inactivated BDNF), the “effect on input-output curves / baseline transmission (fEPSP amplitude)” value is reported as “no effect; also recorded: did not alter”. In addition, the “effect on facilitation of burst responses during theta trains” value is listed as “did not measurably affect” in assay [1] (Fmr1-KO slices, BDNF 50 ng/ml vs ACSF and heat-inactivated BDNF); “did not measurably affect” in assay [2] (BDNF 50 ng/ml vs ACSF). Moreover, the “restoration of LTP” value in assay [1] (Fmr1-KO slices, brief infusion of 50 ng/ml BDNF, threshold theta burst stimulation) is given as “fully restored LTP”. The “effect on TBS-induced increase in fEPSP slope (30-40 min post-TBS)” value in assay [1] (setting [4]) is “enhanced”. The “potentiation (fEPSP slope, percent above baseline)” value in assay [2] (BDNF 50 ng/ml bath-applied, five theta bursts, minutes 30-40 post-TBS, mean ±SEM) was found to be 51.3±8.6%. The “effect on input-output curves” value in assay [2] (BDNF 50 ng/ml vs ACSF alone) is “did not alter”.

B2: heat-inactivated BDNF: BDNF heat-inactivated by boiling for 5 min immediately before use; specificity control (protein, UniProt P23560 19-247, looked up)
Neurotrophic factor BDNF …: APMKEANIRGQGGLAYPGVRTHGTLESVNGPKAGSRGLTSLADTFEHVIEELLDEDQKVRPNEENNKDADLYTSRVMLSSQVPLEPPLLFLLEEYKNYLDAANMSMRVRRHSDPARRGELSVCDSISEWVTAADKKTAVDMSGGTVTVLEKVPVSKGQLKQYFYETKCNPMGYTKEGCRGIDKRHWNSQCRTTQSYVRALTMDSKKRIGWRFIRIDTSCVCTLTIKRGR
modifications: heat-inactivated
notes: specificity control
B2: the “effect on TBS-induced increase in fEPSP slope (30-40 min post-TBS)” value in assay [1] (setting [4]) is recorded as “no effect”.
